What was measured:
[1] = target: BCMA on BCMA-expressing cells (H929 / NCI-H929, MM1.S, U266, Daudi) (human) (UniProt Q02223); assay: flow cytometry on MM1.S cells; antibody 6.250 ng/ml
[2] = target: recombinant BCMA (R&D Systems, catalog no. 193-BC) (human) (UniProt Q02223); assay: competitive ELISA, plate-bound BCMA; Ab 20.000 ng/mL; competitor APRIL 7.81 ng/mL
[3] = target: recombinant BCMA (R&D Systems, catalog no. 193-BC) (human) (UniProt Q02223); assay: competitive ELISA, plate-bound BCMA; Ab 0.002 ng/mL; competitor APRIL 62.50 ng/mL
[4] = target: recombinant BCMA (R&D Systems, catalog no. 193-BC) (human) (UniProt Q02223); assay: competitive ELISA, plate-bound BCMA; Ab 0.020 ng/mL; competitor APRIL 125.00 ng/mL
[5] = target: recombinant BCMA (R&D Systems, catalog no. 193-BC) (human) (UniProt Q02223); assay: competitive ELISA, plate-bound BCMA; Ab 0.200 ng/mL; competitor APRIL 125.00 ng/mL
[6] = target: recombinant BCMA (R&D Systems, catalog no. 193-BC) (human) (UniProt Q02223); assay: competitive ELISA, plate-bound BCMA; Ab 0.002 ng/mL; competitor APRIL 500.00 ng/mL
[7] = target: BCMA on BCMA-expressing cells (H929 / NCI-H929, MM1.S, U266, Daudi) (human) (UniProt Q02223); assay: flow cytometry on H929 cells; antibody 3.130 ng/ml
[8] = target: recombinant BCMA (R&D Systems, catalog no. 193-BC) (human) (UniProt Q02223); assay: competitive ELISA, plate-bound BCMA; Ab 0.020 ng/mL; competitor APRIL 500.00 ng/mL
[9] = target: recombinant BCMA (R&D Systems, catalog no. 193-BC) (human) (UniProt Q02223); assay: competitive ELISA, plate-bound BCMA; Ab 20.000 ng/mL; competitor APRIL 0.00 ng/mL
[10] = target: recombinant BCMA (R&D Systems, catalog no. 193-BC) (human) (UniProt Q02223); assay: competitive ELISA, plate-bound BCMA; Ab 0.020 ng/mL; competitor APRIL 31.25 ng/mL
[11] = target: recombinant BCMA (R&D Systems, catalog no. 193-BC) (human) (UniProt Q02223); assay: competitive ELISA, plate-bound BCMA; Ab 0.020 ng/mL; competitor APRIL 250.00 ng/mL
[12] = target: recombinant BCMA (R&D Systems, catalog no. 193-BC) (human) (UniProt Q02223); assay: competitive ELISA, plate-bound BCMA; Ab 2.000 ng/mL; competitor APRIL 62.50 ng/mL
[13] = target: recombinant BCMA (R&D Systems, catalog no. 193-BC) (human) (UniProt Q02223); assay: competitive ELISA, plate-bound BCMA; Ab 0.002 ng/mL; competitor APRIL 7.81 ng/mL
[14] = target: recombinant BCMA (R&D Systems, catalog no. 193-BC) (human) (UniProt Q02223); assay: competitive ELISA, plate-bound BCMA; Ab 0.200 ng/mL; competitor APRIL 0.00 ng/mL
[15] = target: BCMA on BCMA-expressing cells (H929 / NCI-H929, MM1.S, U266, Daudi) (human) (UniProt Q02223); assay: flow cytometry on MM1.S cells; antibody 0.195 ng/ml
[16] = target: recombinant BCMA (R&D Systems, catalog no. 193-BC) (human) (UniProt Q02223); assay: competitive ELISA, plate-bound BCMA; Ab 0.020 ng/mL; competitor APRIL 7.81 ng/mL
[17] = target: BCMA on BCMA-expressing cells (H929 / NCI-H929, MM1.S, U266, Daudi) (human) (UniProt Q02223); assay: flow cytometry on MM1.S cells; antibody 0.781 ng/ml
[18] = target: recombinant BCMA (R&D Systems, catalog no. 193-BC) (human) (UniProt Q02223); assay: competitive ELISA, plate-bound BCMA; Ab 200.000 ng/mL; competitor APRIL 0.00 ng/mL
[19] = target: recombinant BCMA (R&D Systems, catalog no. 193-BC) (human) (UniProt Q02223); assay: competitive ELISA, plate-bound BCMA; Ab 200.000 ng/mL; competitor APRIL 7.81 ng/mL
[20] = target: recombinant BCMA (R&D Systems, catalog no. 193-BC) (human) (UniProt Q02223); assay: competitive ELISA, plate-bound BCMA; Ab 200.000 ng/mL; competitor APRIL 250.00 ng/mL
[21] = target: recombinant BCMA (R&D Systems, catalog no. 193-BC) (human) (UniProt Q02223); assay: competitive ELISA, plate-bound BCMA; Ab 0.200 ng/mL; competitor APRIL 15.63 ng/mL
[22] = target: recombinant BCMA (R&D Systems, catalog no. 193-BC) (human) (UniProt Q02223); assay: competitive ELISA, plate-bound BCMA; Ab 200.000 ng/mL; competitor APRIL 31.25 ng/mL
[23] = target: BCMA on BCMA-expressing cells (H929 / NCI-H929, MM1.S, U266, Daudi) (human) (UniProt Q02223); assay: flow cytometry on MM1.S cells; antibody 3.130 ng/ml
[24] = target: BCMA on BCMA-expressing cells (H929 / NCI-H929, MM1.S, U266, Daudi) (human) (UniProt Q02223); assay: flow cytometry on MM1.S cells; antibody 0.098 ng/ml
[25] = target: recombinant BCMA (R&D Systems, catalog no. 193-BC) (human) (UniProt Q02223); assay: competitive ELISA, plate-bound BCMA; Ab 2.000 ng/mL; competitor APRIL 125.00 ng/mL
[26] = target: recombinant BCMA (R&D Systems, catalog no. 193-BC) (human) (UniProt Q02223); assay: competitive ELISA, plate-bound BCMA; Ab 0.020 ng/mL; competitor APRIL 15.63 ng/mL

Chain of recombinant BCMA (R&D Systems, catalog no. 193-BC) (human) (Q02223 5-51 limits assumed): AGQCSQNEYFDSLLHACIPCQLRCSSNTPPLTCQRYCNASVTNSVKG
Chain of BCMA on BCMA-expressing cells (H929 / NCI-H929, MM1.S, U266, Daudi) (human) (Q02223 whole entry): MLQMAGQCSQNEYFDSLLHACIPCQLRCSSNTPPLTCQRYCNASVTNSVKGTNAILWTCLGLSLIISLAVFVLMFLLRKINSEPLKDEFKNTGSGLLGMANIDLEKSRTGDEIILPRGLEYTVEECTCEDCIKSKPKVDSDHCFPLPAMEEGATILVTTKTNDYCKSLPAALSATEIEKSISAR

Row | Binder | MFI [1] | A450-A570 [2] | A450-A570 [3] | A450-A570 [4] | A450-A570 [5] | A450-A570 [6] | MFI [7] | A450-A570 [8] | A450-A570 [9] | A450-A570 [10] | A450-A570 [11] | A450-A570 [12] | A450-A570 [13] | A450-A570 [14] | MFI [15] | A450-A570 [16] | MFI [17] | A450-A570 [18] | A450-A570 [19] | A450-A570 [20] | also measured
1 | AntiX**BCMA_F7E_F7E (bispecific antibody, part only; not given: other chains of three-chain format, not shown: another chain or arm of the molecule) tandem VH: QVQLVESGGGLVQPGGSLRLSCVASGFTFSSNAMSWVRQAPGKGLEWVSAISGSGDYTHYSDSVKGRFTISRDNSKNTLYLQMNSLRAEDTAVYYCAKEVPGGPLVDFDSRGQGTLVTVSSGGGGSGGGGSQVQLVESGGGLVQPGGSLRLSCVASGFTFSSNAMSWVRQAPGKGLEWVSAISGSGDYTHYSDSVKGRFTISRDNSKNTLYLQMNSLRAEDTAVYYCAKEVPGGPLVDFDSRGQGTLVTVSS | 2110 | 0.789 | 0.0569 | 0.0557 | 0.0651 | 0.0617 | 5140 | 0.0631 | 0.648 | 0.0551 | 0.0618 | 0.098 | 0.0602 | 0.0676 | 2010 | 0.0578 | 2010 | 2.47 | 2.47 | 2.21 | A450-A570 [21]: 0.0587; A450-A570 [22]: 2.42; MFI [23]: 2070; MFI [24]: 1960; A450-A570 [25]: 0.108; A450-A570 [26]: 0.0584
2 | anti-BCMA heavy chain-only antibody (UniAb) with the VH of SEQ ID NO: 12 (antibody, V domains shown, Heavy chain-only antibody from UniRat; also called Clone ID No: 316302) VH: QVQLVESGGGLVQPGGSLRLSCVASGFTFSSNAMSWVRQAPGKGLEWVSAISGSGDYTHYSDSVKGRFTISRDNSKNTLYLQMNSLRAEDTAVYYCAKEVPGGPLVDFDSRGQGTLVTVSS | 2130 | 0.495 | 0.067 | 0.064 | 0.0643 | 0.0836 | 5170 | 0.0835 | 0.466 | 0.0622 | 0.0617 | 0.0834 | 0.0607 | 0.0708 | 2070 | 0.0631 | 2060 | 2.44 | 2.51 | 0.969 | A450-A570 [21]: 0.0661; A450-A570 [22]: 2.29; MFI [23]: 2110; MFI [24]: 2040; A450-A570 [25]: 0.0736; A450-A570 [26]: 0.0614

Source: patent US20230257473A1 (TENEOBIO, published 2023)
